Measured values published in publication PMC4297295, “Structural Conservation Despite Huge Sequence Diversity Allows EPCR Binding by the PfEMP1 Family Implicated in Severe Childhood Malaria” (Cell Host & Microbe, 2015).

What follows are binders tested against T1, endothelial protein C receptor (EPCR), extracellular domain, biotinylated on the N-terminal BAP tag (human, UniProt Q9UNN8 18-210, biotin attached to the N-terminal BAP tag (BirA)) (assay: SPR). Conditions: both partners purified.
T1 construct: also called biotinylated recombinant EPCR; ECPR
T1 sequence: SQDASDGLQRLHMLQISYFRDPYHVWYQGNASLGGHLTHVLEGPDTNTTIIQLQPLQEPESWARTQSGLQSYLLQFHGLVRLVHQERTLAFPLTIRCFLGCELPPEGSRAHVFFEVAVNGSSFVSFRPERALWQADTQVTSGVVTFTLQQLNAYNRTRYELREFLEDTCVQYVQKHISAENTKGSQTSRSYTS

Binder | Kd [nM] | koff [s⁻¹] | kon [M⁻¹ s⁻¹]
CIDRα1.1 domain of PfEMP1 RAJ116var08 (domain or fragment, also called CIDRa1.1 RAJ116var08_RAJ116; RAJ116var08 (1.1)) PDCVVDCTGGNCKENKKHDNCRSKIIEEILRSEETTDIDVLYSGKGPGAITKKLHDFCSNPNNYKRANVQKWKCYNKNKDYNNCEMNISSYKDATDPNVMLSVQCFYSWAQNLLIDIIRWEHQLKDCINNTNVTDCDNECNKNCECFEKWIKQKQKEWQQVKEVLKKKDENSHNYYNKLRSVFDSFLYQVMFALNNEEKGKWDQFTEDLEKKFESSKKSAGTGNSQDAIEFLLDHLNDNAITCKDNNSKESC | 1.4 | 3.85e-05 | 27900
CIDRα1.1 domain GA011_ERS009959 (domain or fragment, also called CIDRa1.1 GA011_ERS009959; GA011 (1.1)) PDCVVYCEGGECKENENGDNCRSEIIKEIVRSETPTVIDVLYSGNGQDHITEKLDHFCSSTNKEDRKYYKTLKCYNKNNDYNKCEMISWLYQDPKESNLMLSIQCFYSWAQNLLIDTIRWEHQLKDCINNTNVTDCKSNCNKNCKCYKKWIEQKGSEWQQVKQVLKKKDKNSENYYDKLKDVFDTLYFEVMHELNKGKEKGKSEELTEDLKKKFGPSKKNTDAADSKDAIEFLLDHLNDNAITCKDNNSLAVENCTRTKSNPC | 182 | 7.24e-05 | 389
CIDRα1.6a domain of PfEMP1 PFD1235w (domain or fragment, also called CIDRa1.6a PFD1235w_3D7; PFD1235w (1.6a)) PECGVQCSGTTCTPKKVIHPNCKDKETYEPGDAKTTDITVLYSGDEEGDIAQKLQDFCNDKNKENDENYEKWQCYYKSSEINKCQMTPSSHKVPKHGYIMSFYAFFDLWVKNLLIDSINWKNDLTNCINNTNVTDCKNDCNTNCKCFENWAKTKENEWKKVKTIYKNENGNTNNYYKKLNNHFQGYFFHVMKELNKEEKWYKLMEDLKEKIDSSNLKNGTKDSEGAIKVLFDHLKDIAERCIDNNSKDSC | 8.8 | 6.62e-05 | 7550
CIDRα1.6b domain GA019_ERS010031 (domain or fragment, also called CIDRa1.6b GA019_ERS010031; GA019 (1.6b)) PYCGLDCVGKTCTAKQEIYPDCVYNGDYEPPNGAETTEITVLYNDNEGDMSKKLSQFCSNENKENIENYQKWKCYYKDRDDIECEMISSSQKDEKHRKVMIFYNFFDLWVKNLLRDSIKWEIELKDCINNTNVTDCKSVCNVNCECFDKWVKQKEKEWDSIKKLLKKKKNVSKKYYTNINKNFEFFFFRVMYELNNEEAKWNKLMENLRTKINSYKKNKRTKDSEGAIKVLFDHLKETATICKDNNTNEACVSSQNATTNPC | 8.8 | 0.000328 | 37000
CIDRα1.7 domain 1965-8 (patient isolate 1965) (domain or fragment) PHCGVDCNGKKCTLKSDNDPQCVNKLKYEPPYGVKPTEITVLYSADQEGDISKKLSEFCNDEKKINSKNIETWKCYYKSTYNNACKMDKNSKNHTPEVKITKFHNFFEMWIVYLLTETITWNDKLKTCMNNIKTTDCIDECNTNCVCFDKWVKQKGKEWNSIKKLFIKEQKNPKQNYGNINIYFESFFFHVMDKLNHDEAKWNELMNELKQIIDSSKANTDNKNLQDAIKVLFDHLKEIATICKDNNTNEACEDSKKETQNPC | 3.5 | 0.00021 | 59200
CIDRα1.1 domain of PfEMP1 IT4var20 (domain or fragment, also called CIDRa1.1 IT4var20_IT4; IT4var20 (1.1)) PDCVVQCKGGKCTEDKKNDKCRSKIIKKILQSEEPTEIHVLNSDDKQGDITKKLEVFCSSTTNYEGRNVQKWKCYNKNSDYNNCEMNISSYKDSTDANVMLSVECFHSWAKNLLIDTIKWEHQLKNCINNTNVTYCESKCIKNCECYEKWIKRKEHEWEKVKNVFGNNNRMSYIYYNNLSRVFDSFLFQVMFALDQDEKGKWDQFTEDLKKKFEPSKTNTPTGKSQDAIEFLLDHLKDNALTCRDNNSNESCDVSKKVKTNPC | 0.37 | 0.000123 | 332000
CIDRα1.5b domain 1983-13 (patient isolate 1983) (domain or fragment) PDCGVECNGKTCTKKEETDENCGKPPNYTIPTDVTPTDINVLYSGDEQGYITKRLSEFCGPTKNYIGKKNELWKCYYDDKQKNNNNNNNICKLQPNAHIKNENIIINFDNFFEFWVRRFLNDTIDWKYDLNTCMNFTNTTKCNNNCNKNCKCFEQWVNIKKTEWKNVTEYFFKHDETSKKKYCEILKDIFENYYVEVIEKFYKGKHKWKERIEKLKNMDCSQVKIGTNASQDQIDIFLSNLKGDATQCTSKNPKSACNKPHAARIITRATTRNPC | 169000 | 0.00047 | 2.8
CIDRα1.4 domain of PfEMP1 DD2var32 (domain or fragment, also called CIDRa1.4 DD2var32_DD2; DD2var32 (1.4)) PDCGVECNKGTCKKKPNDSNCRNNEAYIPPRDVTPTKINVLYSGDGHGDITKKLKGFCSNPTDYDGKNYENWQCYYKSSEDNKCQMTSLSQTLQKHHYVMSFYAFFDFWVRKFLIDTIKWENELKNCINNTTTDCSDGCNKHCVCFDKWVKQKEKEWNSIKKLFTKKNNVPQPYYTNINNLFDSFYFQVMYELNHDEAKWKELTQELRNKINSSKKNTDAADSKDAIELLLEYLKEKSTICKDNNTNEAC | 0.3 | 0.000343 | 1.06e+06
CIDRα1.6b domain GA018_ERS010570 (domain or fragment, also called CIDRa1.6b GA018_ERS010570; GA018 (1.6b)) PYCGLDCVGTECTAKEEIYPDCVYNGEYDPPKDVRPTEINVIDSGNAVNISEKLNDFCTNPTNPNDKIYQKWQCYYKSSKVNKCQMTSLTQTLQKHHYVMTFYIFFDLWVKNLLRDSVKWEIELKDCINNTNVTDCNNKCNKNCVCFDKWVKQKKKEWDSIKKLFKTEKDEMKKYYTNINKNFEFFFFRVMYELNNEEAKWNKLMENLRIKIKSSKRNKRTKDSEGVIKVLFDHLKETATICKDNNTNEACVSSQNATTNPC | 15 | 0.000531 | 35100
CIDRα1.5a domain GA013_ERS010323 (domain or fragment, also called CIDRa1.5a GA013_ERS010323; GA013 (1.5a)) PYCGVDCSNGTCKENGNDDNCGEQQNYNIPKGVDPTNINVLYSVDGHGDIAKRLSTFCNDKNNKNAKNNEIWQCYYIGHKNNQCKIEKSVSQKKHQTKIAPFDYFFDLWVTNLLRDNIDWKNELKNCINNKNTEKCNKECNDNCKCFQSWLNKKEDEWNKITGLLKNKNGILQNYYNKLKSHFDYYFFQVINNINKGEEKWKKLKEDLKKEIDFSKLKTNTGDSQDSIKLLLDHENKNAGTCLKNNPIDSCPKAEPQKSDEKVQPQDTPPNSC | 57 | 0.000832 | 14700
CIDRα1.8a domain GA026_ERS010178 (domain or fragment, also called CIDRa1.8a GA026_ERS010178; GA026 (1.8a)) PDCVVDCKGAKCEQKMKPDGTCEKPQIYTRPKDVTPKIIKVLFSGDNQEDITEKLSSFCSNPKSKIDRNYQTWKCYYKSGHYNICEMKGSLYKYPEHPNDMLSVECFHLWVKNLLIDTIKWETKLKKCINNTNVTDCDNECNKNCECFENWVEQKKKEWEEVRKVYKDQKESLGIYYKKLENLFDTYYFEVMGALENEEKHGKWNQLTAKLKQIIESHKKNRHSGNSQDAIELLLDHLKETATTCKDNNSNESCDVSKDSKTNPC | 48 | 0.000842 | 17700
CIDRα1.1 domain of PfEMP1 IT4var19 (domain or fragment, also called CIDRa1.1 IT4var19_IT4; IT4var19 (1.1)) PDCVVVCEGGNCKEKTEDDNCRSEIIKKILKYETPTPIDVLYSGKGQGLITKKLEDFCSSTTNYEGTNVQKWKCYNKNKDYNNCEMNISSYKDATDPNVMLSVECFHSWAKNLLIDTIRWEHQLKNCINNTNVTDCTSKCIKNCECYEKWIKEKEKEWPQVKGVLKKKDETSHNYYDKLKDVFDRFLFEVKGALDQDEKGKWDQFTKDLEKKFGPSVESAGTANSQDAIELLLDHLNDNATTCKDNNSLAVENC | 16 | 0.000364 | 22700
CIDRα1.6a domain of PfEMP1 HB3var02 (domain or fragment, also called CIDRa1.6a HB3var02_HB3; HB3var02 (1.6a)) PECGVQCSGTTCTPKKVIHPNCKDKETYEPGDAKTTDITVLYSGDEEGDIAQKLQDFCNDKNKENDENYEKWQCYYKSSEINKCQMTRSSKKVPKHRGVMSFYAFFDLWVKNLLIDSINWKNDLTNCINNTNVTDCNKDCNKNCVCFDQWVIKKEEEWKNVNKVFENKNIDLHDYYNKLNKHFEGYFFHVMKELNKEEKWYKLMEDLKEKIDFSKGKADGKNSEGAIKVLFDHLKEIAEKCIHNNSNESCEASTNRTPNPC | 1400 | 0.00139 | 975
CIDRα1.5a domain 1965-2 (patient isolate 1965) (domain or fragment) PDCGVECKNGRCKKKTDADGNCGKTQIYDIPKDVTPTDINVLYSGDEYGDIAKRLSEFCRDSKKENGKNTEIWHCYYIGDKHNQCKMEKAVAENKHQTKITTFDFFFDLWIKNLLRDTINWKSQLKNCINNTNKTNCNKTCNENCKCFENWVNQKEKEWNNMKELFKNKNRTSQNYYNKLKSHFDNYFFLVINNVNKGEAKWKKFTDELRNKIDSSKAKNGTSDSQDSIKMLLEHLKEDGTTCTANNPDSICNTPGTDARSLEPASKIEPQNKDTRTNPC | 54 | 0.00103 | 18900
CIDRα1.8a domain of PfEMP1 MAL6P1.316 (domain or fragment, also called CIDRa1.8a MAL6P1.316_3D7; MAL6P1.316 (1.8a)) PACVVECDGGKCEEKKNSDGTCIEAQIYTVVRDETPTPIKVLFSGDHQKDITKKLSSFCKNPESENNRDYQTWQCYYKSSDYNNCEMKGSLYKVEGDPNIIVSHECFHLWVQSLLIDTIKWETKLKKCINNTNVTNCYNKCNKNCECFENWVEQKKKEWENVNDVYKDQKQSLGIYYEKLENLFKSNFFQVMKALEGDEKGKWYQFKDDLKKKFEPSEKNTRTTDSQDAIKLILDHLKDNATTCKDNNSLEEDENC | 50 | 0.000828 | 16700
CIDRα1.7 domain of PfEMP1 IT4var22 (domain or fragment, also called CIDRa1.7 IT4var22_IT4; IT4var22 (1.7)) PYCGLDCGGKTCTAKQEIYPDCVYNGAYEPPNGAETTEITVLYSADQEGDISNKLSEFCNDENNKNSQKWQCYYVSSENNGCKMEKKNANHTPEVKITKFHNFFEMWVTYLLTETITWKDKLKTCMNNTKTADCIHECNKNCVCFDKWVKQKEDEWNSIKKLFTKEKKMPKQYYGNINIYFESFFFHVMKKLNKEAKWNKLMDELRNKIELSKGNEGTKDLQDAIELLLEYLKEKSTICKDNNTNEACDPTVDPTKNPC | 17 | 0.00105 | 61300
CIDRα1.8b domain 2053-3 (patient isolate 2053) (domain or fragment) PICGVKCENKSCTDKENDDDCKNKKKYDPPKGVTPIDIPILYSGDKQGDITKKLEDFCYNRTKENEKTYQNWKCYYKDSEFNKCKMESKSGKSTTQEKIISFDEFFYLWVNNLLIDSIMWENDIKHCINNTNVTNCKNKCNENCKCFKNWVKKKEEEWTKVKQILGNRSENLNNYYNKLNSLFKGFFFEVVYKFNNKEEKWNKLTEKLEQKIGSSKGKEGVENPKDAIELLLDHLKENAITCKDNNSLEEDKNCPKIKINPC | 4 | 7.65e-05 | 20200
